Laboratory results as given in publication PMC4222082, “Nitrogen starvation-induced transcriptome alterations and influence of transcription regulator mutants in Mycobacterium smegmatis”.

Experiments:
[1] = target: T1, MBP-GlnR (Mycobacterium smegmatis (SMR5?)) (UniProt A0R4C4); experiment: EMSA; conditions: GlnR: DIG Gel Shift Kit (Roche) buffer, 6% native PAGE, 0.5x TBE; AmtR: 20 mM Tris-HCl pH 7.9, 25 mM KCl, 1 mM DTT, 5 mM MgCl2, 0.5 mg/ml BSA, 5% glycerol …
T1 sequence: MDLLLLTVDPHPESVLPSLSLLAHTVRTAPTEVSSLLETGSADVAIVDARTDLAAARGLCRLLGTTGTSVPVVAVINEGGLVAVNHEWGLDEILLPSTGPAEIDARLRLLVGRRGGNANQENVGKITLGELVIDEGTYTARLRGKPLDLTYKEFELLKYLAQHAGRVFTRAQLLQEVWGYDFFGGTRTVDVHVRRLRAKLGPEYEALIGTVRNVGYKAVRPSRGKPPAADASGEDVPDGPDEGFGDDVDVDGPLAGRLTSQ

MBP-GlnR [2] = target: T2, MBP-GlnR (Mycobacterium smegmatis, UniProt A0R4C4 1-261); experiment: competition; 1000-fold excess vs 220 bp amtB probe; GlnR: DIG Gel Shift Kit (Roche) buffer, 6% native PAGE, 0.5x TBE; AmtR: 20 mM Tris-HCl pH 7.9, 25 mM KCl, 1 mM DTT, 5 mM MgCl2, 0.5 mg/ml BSA, 5% glycerol, 2 ug sperm DNA, 25 C 30 min; conditions: protein: recombinant; (pMal-c2-glnR); chain copies: 2; label: digoxigenin when used as probe
T2 sequence: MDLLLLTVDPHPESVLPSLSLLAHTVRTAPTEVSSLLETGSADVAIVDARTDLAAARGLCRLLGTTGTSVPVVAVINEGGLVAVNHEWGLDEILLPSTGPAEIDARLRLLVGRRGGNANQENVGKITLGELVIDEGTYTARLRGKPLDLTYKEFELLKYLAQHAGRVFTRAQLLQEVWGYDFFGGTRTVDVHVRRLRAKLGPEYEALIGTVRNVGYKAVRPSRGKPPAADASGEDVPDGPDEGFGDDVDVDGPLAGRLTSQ

MBP-GlnR [3] = target: T2, MBP-GlnR; experiment: competition; 1000-fold excess vs fragment 6 probe; GlnR: DIG Gel Shift Kit (Roche) buffer, 6% native PAGE, 0.5x TBE; AmtR: 20 mM Tris-HCl pH 7.9, 25 mM KCl, 1 mM DTT, 5 mM MgCl2, 0.5 mg/ml BSA, 5% glycerol, 2 ug sperm DNA, 25 C 30 min; conditions: protein: recombinant; (pMal-c2-glnR); chain copies: 2

## GTGTGAACCTCCTTGGGAAGTGCGCCGACGGATCGGCCTCCCGATGAGATTCTGTTGCCGGCGTTTCGCCGGTGCTGCCGTTGCGTTTCCGGAAAGTGAACGCAATCCCGATCACTGTTACGCTCATGTTTCCCGCCGACAAAGCACAGGTCGTTGCACAGCCAACGCCGGCTGTAACGCCCCGCAAACACTCCCGCTGCGGCGCCGCGAACCCGACGTC (double strand) [amtB upstream]
[1]
  binding: binds

## TGAGGGTCCTAATCCGTCCCTGAACAGGGAAATTACCGGACCATTTTTTGGTCTGGTCTGAGAATGTCGCCGACGACGTTGTGCTGCGACGCTGGCAATTGTTACCGCGCCCAGATTCGTTGGTCAACTTGGAATTACCTGTACATATGCGGGTTTGTTGCAAACATGTTTCGAAGCTGGGAGCCATGCAACGGCAGCGTAAAAATTCTCGATTTGGTCTGCTCTGGTTCGGCTTTTGGTCCACACTCTTCGACATGCCGGGACTTCCAGCTGACCACGAACTGTTCGCGCGCGCCGCAC (double strand) [msmeg_0781 upstream]
[1]
  binding: binds

## TGCAGTATCACTACTTTCTTGTTATCCACTTGTCAGGCGTTCGCGGTCTCTGGAGTTTGCTGTGAGGTTTCCTTGAGCCCGAGGCGGGCCCGGATGACGAGGCCGATGACGAACAGTGCCGCGGTGACGATGAACGGCGCCCAGTCGACCCACGGGTCGCCCGTGCGGGGCCACAGGACGTTGACGGTCTCCACGATCACCCACACCAGCGCGAGCCACCCCGCAACGTGTCCGGCACGGCCCAGGAAGGTCGGTTCGGTGGGGTCCCAGGTGCCCCGGAGCTTGCTGATCGCCAACCCC (double strand) [msmeg_6734 upstream]
[1]
  binding: no binding

## TTCGGTGTACCTGTGGAAGAACACCGTGGAGAAGGCACAGTCCTTCGACGTCAAGGCAATTCAGGACAACGCCGATGGCGTGAGCTTCGACGCGCCCGAGGGCAAGGTCACCATCGACGGCGAGAACCACCACATCACCAAGACCGCCCGCATCGGTGAGATCCGCCCCGACGGCCTGATCTACACGGTGTGGGAGTCCAAGGGCCCCATCGAGCCGGATCCGTACCTGAAGTCCTACCCGTGGGCCGCAGGGCTGTCGAGCTGATCAGATAGTCACACCGAGGGGGATCTGACAACCGT (double strand) [msmeg_2981 upstream]
[1]
  binding: no binding

B1: amtB fragment 6 (dsDNA)
DNA 1: TGCGTTCACTTTCCGGAAACGCAACGGCAGCACCGGCGAAACGCCGGCAA
DNA 2: TTGCCGGCGTTTCGCCGGTGCTGCCGTTGCGTTTCCGGAAAGTGAACGCA
MBP-GlnR [2]
  binding result: binds

B2: amtB fragment 6.1 (dsDNA)
DNA 1: TGCGTTCACTTTCCGGAAACGCAAC
DNA 2: GTTGCGTTTCCGGAAAGTGAACGCA
MBP-GlnR [3]
  binding result: binds
